# Assay results as given in the domain aggregation screens of Martell et al. (2025).
# Assay: soluble fraction after stress (log2 fold change); higher = more stays soluble; pooled small domains, quantitative proteomics
# Conditions: stress: pH 4
# How it was run: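 After pH 4 stress, pooled custom libraries of small protein domains were quantified with high-throughput quantitative proteomics. Aggregation propensity is taken from the fold change in each domain's soluble amount following the acid stress. The scale is log2, where higher values mean more stayed soluble.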
row,Sequence,soluble fraction (log2)
1,HMSTPLPTGLPRGTIIEYTVQTDETLAIIAAKFNSTVDDIMTRNKITDPNTIYAGQILKVAINLVTP,-0.267
2,HMEPIAFDNMHNRGIKGTNDWTQYEITLPFSAEAKKIFVAGLLVGKGKAWFDKFEVFLDGKNITDVAQI,-0.0075
3,HMQTTKTGTITASSLYVRSGASTSHKVLGTVSKGKTVQIKDTQDGWHKISYNGDHGWVSGKYVSTT,≥ 0.43
4,HMKNLTERQQQIIALISGNPLITRAEIASAIGFSVKTIERELSILSEIVSYVGSKKGGHWEIQT,-0.49
5,HMKNAYDLKMLVKDNDGNIERNMKYYFFLANGSKVEGITDDNGYTKTITTIQPEKADLHLINDELI,-0.0557
6,HMNAISIDEAKKIALAKVSGASDQHIRIEADHDDGRLVYEGEIHYGRVEYEFEIDGSTGAIIEWDADRK,-0.0156
7,HMKSQVVAYSDFVKAVNQKQINEVQIQGDKIRAINKAGEEITVTWLQNDQKLMDDLLDNNVKTIFLE,-0.282
8,HMAVKNAQIDVQQFFYSKSGEVDFGRKIKAIQSHFTPERLQSFTAAVPPSQWVSQLQVMWDSL,-1.68
9,HMVLLGAAIRELRIQKGITIEELAEMSGLSTGLISKIERDLGNPSISSLRKISRALGVPTAFFFA,-0.744
10,HMAVQPMDQVKAWLAEDNPADIKLLVPVLQKLDLLDYEQVRGEVADRAGVRKSLLDEAVKGN,-0.119
11,HMDPYLSGLLQKLAETDKKISFTRLRSEDLDGESREAIYEFIEKYSGRFGVRWLLNEFGLSPSVYYNYLHS,-0.644
12,HMQPQYSVLFSNIEEKDGGSIITLLQQGNVPYKVENGGTTILVPANRANELRLTLAAQGLPK,0.223
13,HMENTIESLLKAKGFNDIIVTVSDKQVDVVVSDKEIADNKRAQIEDVIKRKTGLEASAITITPA,-0.332
14,HMDLTPEEQMDLYRLLDSLPTEERTYLILHYFEERSFPEMAEILSMPEAKLKSRFYRILHRLRAHL,-1.11
15,HMVEAIDQALIEKQIQAVLQENSAAVKKYQAGKTEVLAFLIGQSMRKIAKKVDANLVKNILLEQLKNK,0.077
16,HMKHFFIIAGGKIEDAFAIEVLKGFAEKTVIAADSGMEFLRRNEIVPQVIIGDFDSVSKETLEWFQKK,0.22
17,HMRLSESLLDDIPGIGAARKRALLQSFGSVRKLRHADAEEIAAKVPGIGLNFAEKIVEALRKK,0.187
18,HMASLIGEEKALQIALEHAGVALENVAYSQVKLENDDGRWEYDTEFYSGSKEYDYEIDASTGEILGYDHD,-0.0579
19,HMEDELVMERFDINELVKSVVNANELRATQKNLSITYDILDTPLYVWADEYKVEEVVTNYLS,-1.06

row,Sequence,soluble fraction (log2)
1,HMVAPNSEATTKLIIEKTKYANESPAILMGFKATATMLMAKHVVLPTSKYAYFNEGRALLEKAIK,0.278
2,HMYSYSGSVINTYKVPVSVVLKDANGSAIASWDLPVDQSLGISAKDIATSSGTIEITGDGVNETKTVTFTK,-0.159
3,HMTDYREILRLLSLGLSRTQIADSLNVSRTTVIHTLQRAVAQELDWQTAEGMSDRELVAKLFPV,-0.564
4,HMREGIQLGDPVRVIRDPLFGKIGAVSGLPSELRAIPTESEVRVLEVRFPDGTTTVVPRANIEVIEG,-0.229
5,HMLIIMNSDATKEQVDHVTSRVREAGFKDHIMPGAGKVAIGVTGTGDYDQTKLHLEILPGVFKIMRITK,-0.0509
6,HMETAVMPDVMKLDSTTAIQALKDKGFATIETYEVKSDRPAGVVVRQSETADSVVALSKEILLGVSNGADY,-0.00473
7,HMGKIINMSKVKQVLRLHTQGVSNRRIALDLGLYKGTVNSYIRKIKDHGYDIAEVLKLDDPVLESKLFA,0.268
8,HMNDTSLIIDNLMLKLGNNIKNFSEIYSLLRKNLAEYGEEFIKSKVDYVLKNFNDNIEENLKKLLTE,-0.601
9,HMDDHKQHLIDFYHSRKRMPTYTEMMALFGYKSKNAVARLVEKMIDAGIVTKDKLGKLLPTTLFDSVPL,-0.0996
10,HMIPDPPALGSNLHRERRRQQLSLDALAAASGVSKAMLSQIEADKVNPTIATMWKIAHALNIDFETLLRGE,0.172
11,HMGIAFDYDAGRFDQVPPNLVEKWQQAYPAVDVLSELRRMEAWASANPVNRKSNWQRFIVNWLTRAQDRAG,-0.16
12,HMDDTVILPIQINGKRRAEISVPKAMPASEVEKLALANEDVLRFLAGQPIKKLIVVPGRIINVV,≥ 0.43
13,HMLGKEVVRAYNISYAIDDKGSLQGDLTAALTGLIPLSKPPVLDQRNRSLYVTATPEQHKDVAALLAKL,-0.364
14,HMKILVTDDNIRIDKYLTTQTEYSRSTIQKMIESNNILVNNKPTKSNYILRNNDEITIDENFNEE,-0.0512
15,HMLHSEDATVVRQAIPLLERHVDAATVAVARRNLAQLEQFGRYPRRNQALGRISNPAENAYLRAER,-0.0503
16,HMEMKHKNSQIFQAIKLKHMGFTPTQISEELRVSRTTINHWLTKAQLKDVKWEDIRENSADELVKLLFG,-0.322
17,HMKSQSIFNVKKGDTLSHIAVHVLKKNKQKVTPEAINKMVSNIAFRNKIKNPDLIFPGQKLVLEY,-0.0458
18,HMIENGILELKGKTGVAQTVLRPSGKVLIDDEIYDAVALTGYIEKADKVLVTKVEATQLYVEK,-0.289
19,HMEWTDIPTHKVPNVVGKSVEEAKKKLSKFTIEYSGTGEKVVAQSPDAGEKLEEGGTVRLLL,0.00183
